Results reported in US20250076311A1 (Chugai, published 2025).
Residue numbers refer to the chain shown, from its start. Names and notes keep the numbering of the source.

T1: cynomolgus monkey FcγRIIIaS extracellular domain with C-terminal His-tag (cynomolgus monkey, UniProt Q8SPW2 21-206 at identity 1.00))
T1 construct: also called cyno FcγRIIIaS; FcgRIIIaS
T1 chain: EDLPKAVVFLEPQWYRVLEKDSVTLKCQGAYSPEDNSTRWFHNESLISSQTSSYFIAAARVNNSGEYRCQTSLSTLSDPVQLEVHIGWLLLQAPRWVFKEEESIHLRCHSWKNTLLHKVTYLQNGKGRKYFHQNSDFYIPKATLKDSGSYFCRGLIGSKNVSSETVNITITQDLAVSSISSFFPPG

T2: human FcγRIIaR extracellular domain, His-tagged (human, UniProt P12318 34-217)
T2 construct: also called human FcgRIIaR; FcγRIIa type R
T2 chain: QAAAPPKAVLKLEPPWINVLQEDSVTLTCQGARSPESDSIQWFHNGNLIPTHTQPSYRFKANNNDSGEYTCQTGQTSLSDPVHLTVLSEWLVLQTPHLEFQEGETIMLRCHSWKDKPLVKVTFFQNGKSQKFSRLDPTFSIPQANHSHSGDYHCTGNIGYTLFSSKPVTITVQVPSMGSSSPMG

T3: human FcγRIIb extracellular domain, His-tagged (human, UniProt P31994 43-217)
T3 construct: also called human FcgRIIb
T3 sequence: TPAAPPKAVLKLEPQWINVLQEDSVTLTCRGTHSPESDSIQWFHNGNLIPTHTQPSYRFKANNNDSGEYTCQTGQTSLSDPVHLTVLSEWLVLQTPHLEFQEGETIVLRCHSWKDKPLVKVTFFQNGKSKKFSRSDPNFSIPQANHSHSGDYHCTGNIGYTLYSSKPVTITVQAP

T4: human FcγRIIaH extracellular domain, His-tagged (human, UniProt P12318 34-217)
T4 construct: also called human FcgRIIaH; FcγRIIa type H
T4 sequence: T2 chain with R134H

B1: MS_M103205H795-SG1/M103202L889-SK1 (antibody, human IgG1, kappa)
heavy: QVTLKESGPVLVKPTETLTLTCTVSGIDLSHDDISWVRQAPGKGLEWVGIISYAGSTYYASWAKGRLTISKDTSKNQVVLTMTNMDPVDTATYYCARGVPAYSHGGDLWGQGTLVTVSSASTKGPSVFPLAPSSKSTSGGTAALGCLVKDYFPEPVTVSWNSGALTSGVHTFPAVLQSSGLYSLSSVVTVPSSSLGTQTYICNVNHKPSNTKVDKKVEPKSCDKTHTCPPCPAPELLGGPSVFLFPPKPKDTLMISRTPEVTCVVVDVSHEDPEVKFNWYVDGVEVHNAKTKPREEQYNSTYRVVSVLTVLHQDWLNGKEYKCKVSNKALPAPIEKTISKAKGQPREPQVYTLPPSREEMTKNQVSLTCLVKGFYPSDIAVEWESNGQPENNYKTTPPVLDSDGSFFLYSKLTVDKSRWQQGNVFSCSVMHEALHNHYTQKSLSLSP
light: DIVMTQSPATLSLSPGERATLSCTSSQSVYHANWLSWFQQKPGQPPKLLIYWASTLAYGVPSRFSGSGSGTDFTLTISSLQPEDAATYYCAGGYGGGRYAFGQGTKVEIKRTVAAPSVFIFPPSDEQLKSGTASVVCLLNNFYPREAKVQWKVDNALQSGNSQESVTEQDSKDSTYSLSSTLTLSKADYEKHKVYACEVTHQGLSSPVTKSFNRGEC
notes: parent antibody of the Fc variants; human heavy chain constant region SG1; also called MS1032LO06-SG1
B2: M103205H795-MY518/M103202L889-SK1 (antibody)
heavy: QVTLKESGPVLVKPTETLTLTCTVSGIDLSHDDISWVRQAPGKGLEWVGIISYAGSTYYASWAKGRLTISKDTSKNQVVLTMTNMDPVDTATYYCARGVPAYSHGGDLWGQGTLVTVSSASTKGPSVFPLAPSSKSTSGGTAALGCLVKDYFPEPVTVSWNSGALTSGVHTFPAVLQSSGLYSLSSVVTVPSSSLGTQTYICNVNHKPSNTKVDKKVEPKSCDKTHTCPPCPAPELWNGPSVFLFPPKPKDTLMISRTPEVTCVVVDVSDEDPEVKFNWYVDGVEVHNAKTKPREELYNSTYRVVSVLTVLHQDWLNGKEYKCKVSNTALPKPIEKTISKAKGQPREPQVYTLPPSREEMTKNQVSLTCLVKGFYPSDIAVEWESNGQPENNYKTTPPVLDSDGSFFLYSKLTVDKSRWQQGNVFSCSVMHEALHNHYTQKSLSLSP
light: B1 light
notes: Fc variant of MS1032LO06-SG1; EU numbering
B3: M103205H795-MY350/M103202L889-SK1 (antibody, human IgG1, kappa, name in EU numbering)
heavy: B2 heavy with D270E, L297Q, T328K, P398M
light: B1 light
notes: Fc variant of MS1032LO06-SG1; positions in EU numbering
B4: M103205H795-MY312 (heavy chain) with M103202L889-SK1 (light chain) (antibody, human IgG1, kappa, name in EU numbering)
heavy: B2 heavy with W237L, N238T, D270E, L297Q, P398M
light: B1 light
notes: Substitutions introduced into M103205H795-SG1; positions in EU numbering
B5: M103205H795-MY292 (heavy chain) with M103202L889-SK1 (light chain) (antibody, human IgG1, kappa, name in EU numbering)
heavy: B2 heavy with W237L, N238G, G239Y, T328K, P398M
light: B1 light
notes: as for B4
B6: M103205H795-MY279 (heavy chain) with M103202L889-SK1 (light chain) (antibody, human IgG1, kappa, name in EU numbering)
heavy: B2 heavy with W237L, N238H, T328K
light: B1 light
notes: as for B4
B7: M103205H795-MY293 (heavy chain) with M103202L889-SK1 (light chain) (antibody, human IgG1, kappa, name in EU numbering)
heavy: B2 heavy with W237L, N238G, G239Y, D270E, T328K, P398K
light: B1 light
notes: as for B4
B8: M103205H795-MY310 (heavy chain) with M103202L889-SK1 (light chain) (antibody, human IgG1, kappa, name in EU numbering)
heavy: B2 heavy with W237L, N238T, D270E, L297Q
light: B1 light
notes: as for B4
B9: M103205H795-MY142 (heavy chain) with M103202L889-SK1 (light chain) (antibody, human IgG1, kappa, name in EU numbering)
heavy: B2 heavy with W237L, N238E, D270E, L297Q, T328K, K332A, P398M
light: B1 light
notes: as for B4
B10: M103205H795-MY311 (heavy chain) with M103202L889-SK1 (light chain) (antibody, human IgG1, kappa, name in EU numbering)
heavy: B2 heavy with W237L, N238T, D270E, T328K
light: B1 light
notes: as for B4
B11: M103205H795-MY278 (heavy chain) with M103202L889-SK1 (light chain) (antibody, human IgG1, kappa, name in EU numbering)
heavy: B2 heavy with W237L, N238M, T328K
light: B1 light
notes: as for B4
B12: GpH7-B3 A327N / GpL16-k0 (antibody, human IgG1, kappa)
heavy: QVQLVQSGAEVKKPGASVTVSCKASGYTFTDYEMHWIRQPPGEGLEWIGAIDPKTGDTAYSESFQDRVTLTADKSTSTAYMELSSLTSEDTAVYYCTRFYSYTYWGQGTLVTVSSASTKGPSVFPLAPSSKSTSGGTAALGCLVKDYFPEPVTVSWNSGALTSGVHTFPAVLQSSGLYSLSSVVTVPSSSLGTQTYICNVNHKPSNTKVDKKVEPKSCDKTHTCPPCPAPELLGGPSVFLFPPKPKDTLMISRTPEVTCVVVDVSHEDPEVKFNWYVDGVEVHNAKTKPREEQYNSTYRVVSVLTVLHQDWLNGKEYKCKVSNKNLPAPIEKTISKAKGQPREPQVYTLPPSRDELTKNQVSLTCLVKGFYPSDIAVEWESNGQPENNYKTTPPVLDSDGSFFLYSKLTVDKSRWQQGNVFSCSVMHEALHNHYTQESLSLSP
light: DIVMTQSPLSLPVTPGEPASISCQASESLVHSNRNTYLHWYLQKPGQSPQLLIYKVSNRFSGVPDRFSGSGSGTDFTLKISRVEAEDVGVYYCSQNTHVPPTFGQGTKVEIERTVAAPSVFIFPPSDEQLKSGTASVVCLLNNFYPREAKVQWKVDNALQSGNSQESVTEQDSKDSTYSLSSTLTLSKADYEKHKVYACEVTHQGLSSPVTKSFNRGEC
notes: also called B3 variant A327N
B13: GpH7-B3 P271E / GpL16-k0 (antibody, human IgG1, kappa)
heavy: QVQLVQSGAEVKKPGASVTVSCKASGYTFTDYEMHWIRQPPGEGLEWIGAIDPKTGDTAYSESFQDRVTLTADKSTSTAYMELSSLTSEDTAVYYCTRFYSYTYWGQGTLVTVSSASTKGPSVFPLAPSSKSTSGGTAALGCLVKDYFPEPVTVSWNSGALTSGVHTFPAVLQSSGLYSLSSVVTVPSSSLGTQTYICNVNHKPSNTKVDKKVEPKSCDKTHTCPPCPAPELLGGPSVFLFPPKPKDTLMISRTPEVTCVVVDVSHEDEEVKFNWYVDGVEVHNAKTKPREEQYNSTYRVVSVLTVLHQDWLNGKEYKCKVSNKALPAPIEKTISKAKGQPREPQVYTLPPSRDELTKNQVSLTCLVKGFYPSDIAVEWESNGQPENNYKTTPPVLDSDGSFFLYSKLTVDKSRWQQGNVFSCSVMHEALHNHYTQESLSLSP
light: B12 light
notes: also called B3 variant P271E
B14: GpH7-B3 G236A / GpL16-k0 (antibody, human IgG1, kappa)
heavy: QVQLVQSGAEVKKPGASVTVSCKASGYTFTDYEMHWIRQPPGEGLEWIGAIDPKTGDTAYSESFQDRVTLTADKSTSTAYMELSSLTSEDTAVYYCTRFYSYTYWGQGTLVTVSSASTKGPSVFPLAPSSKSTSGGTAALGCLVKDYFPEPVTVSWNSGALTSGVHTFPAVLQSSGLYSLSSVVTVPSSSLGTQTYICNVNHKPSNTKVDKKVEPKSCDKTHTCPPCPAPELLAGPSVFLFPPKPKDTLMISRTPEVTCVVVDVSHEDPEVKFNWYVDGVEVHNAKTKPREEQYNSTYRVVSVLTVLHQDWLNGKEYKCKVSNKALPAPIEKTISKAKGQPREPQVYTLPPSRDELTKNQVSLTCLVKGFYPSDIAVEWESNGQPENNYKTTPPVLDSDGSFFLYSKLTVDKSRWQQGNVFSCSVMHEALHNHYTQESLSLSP
light: B12 light
notes: also called B3 variant G236A
B15: GpH7-B3 P271D / GpL16-k0 (antibody, human IgG1, kappa)
heavy: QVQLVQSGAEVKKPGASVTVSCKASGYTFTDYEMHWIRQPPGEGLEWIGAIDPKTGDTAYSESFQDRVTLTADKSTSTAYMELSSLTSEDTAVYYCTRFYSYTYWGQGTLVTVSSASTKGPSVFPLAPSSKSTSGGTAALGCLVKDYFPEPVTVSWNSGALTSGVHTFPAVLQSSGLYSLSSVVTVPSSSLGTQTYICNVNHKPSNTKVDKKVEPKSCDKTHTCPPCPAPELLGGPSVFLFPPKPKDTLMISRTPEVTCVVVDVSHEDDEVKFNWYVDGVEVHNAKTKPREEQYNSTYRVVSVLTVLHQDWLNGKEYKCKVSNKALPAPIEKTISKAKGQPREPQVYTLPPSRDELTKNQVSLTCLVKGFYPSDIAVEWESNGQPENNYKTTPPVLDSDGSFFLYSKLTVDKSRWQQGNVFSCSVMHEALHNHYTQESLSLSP
light: B12 light
notes: also called B3 variant P271D
B16: GpH7-B3 A330K / GpL16-k0 (antibody, human IgG1, kappa)
heavy: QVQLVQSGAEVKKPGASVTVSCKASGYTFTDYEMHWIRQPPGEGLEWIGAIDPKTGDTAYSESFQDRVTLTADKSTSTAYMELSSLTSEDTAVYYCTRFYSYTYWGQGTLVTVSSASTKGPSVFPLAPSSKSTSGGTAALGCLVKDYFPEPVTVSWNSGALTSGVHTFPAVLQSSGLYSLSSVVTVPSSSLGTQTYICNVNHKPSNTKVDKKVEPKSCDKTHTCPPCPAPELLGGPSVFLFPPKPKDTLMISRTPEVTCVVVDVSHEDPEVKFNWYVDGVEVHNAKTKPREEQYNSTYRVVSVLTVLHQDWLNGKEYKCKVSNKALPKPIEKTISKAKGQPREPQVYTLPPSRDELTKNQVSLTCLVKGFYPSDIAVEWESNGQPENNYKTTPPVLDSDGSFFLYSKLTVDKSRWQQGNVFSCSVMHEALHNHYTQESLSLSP
light: B12 light
notes: also called B3 variant A330K
B17: GpH7-B3 A330R / GpL16-k0 (antibody, human IgG1, kappa)
heavy: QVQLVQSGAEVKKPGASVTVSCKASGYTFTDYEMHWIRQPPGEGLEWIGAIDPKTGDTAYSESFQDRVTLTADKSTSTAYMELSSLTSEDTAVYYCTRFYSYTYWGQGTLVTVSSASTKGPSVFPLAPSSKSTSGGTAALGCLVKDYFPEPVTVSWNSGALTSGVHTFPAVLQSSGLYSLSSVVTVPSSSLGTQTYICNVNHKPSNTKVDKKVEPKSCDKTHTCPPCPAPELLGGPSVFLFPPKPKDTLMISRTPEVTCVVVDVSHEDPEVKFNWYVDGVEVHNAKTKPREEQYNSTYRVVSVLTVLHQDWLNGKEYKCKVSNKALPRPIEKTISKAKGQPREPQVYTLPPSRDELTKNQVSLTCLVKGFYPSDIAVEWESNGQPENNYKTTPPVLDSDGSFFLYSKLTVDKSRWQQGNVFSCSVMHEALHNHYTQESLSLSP
light: B12 light
notes: also called B3 variant A330R
B18: M103205H795-MY518/M103202L889-SK1 (antibody)
heavy: B2 heavy
light: B1 light
B19: M103205H795-MY206/M103202L889-SK1 (antibody, human IgG1, kappa, name in EU numbering)
heavy: B2 heavy with W237L, S241V, T328K
light: B1 light
notes: substitutions in EU numbering, introduced into M103205H795-SG1

What follows are binders tested against T5, cynomolgus monkey FcγRIIIaS extracellular domain with C-terminal His-tag (cynomolgus monkey, UniProt A3RFZ7 21-206 (rhesus entry)) (assay: SPR (BIACORE), antibody captured, FcgR analyte).
T5 construct: also called cyno FcgRIIIaS; cynoFcγRIIIaS; not shown: His-tag added to the C-terminus
Description: (§1) The kinetic analysis of interactions between these antibodies and FcγR was carried out using BIACORE® T200 or BIACORE® 4000 (GE Healthcare). HBS-EP+ (GE Healthcare) was used as the running buffer, and the measurement temperature was set to 25° C. […] After the measurement, the antibody captured on the chip was washed off by allowing reaction with 10 mM glycine-HCl, pH1.5 and 25 mM NaOH so that the chip was regenerated and used repeatedly. The sensorgrams obtained as measurement results were analyzed by the 1:1 Langmuir binding model using the BIACORE® Evaluation Software to calculate the binding rate constant ka (L/mol/s) and dissociation rate constant kd (1/s), and the dissociation constant KD (mol/L) was calculated from these values. […] Regarding such interactions, KD values were calculated using the following 1:1 binding model described in BIACORE® T100 Software Handbook BR1006-48 Edition AE.

Row | Kd [µM] | Binder
1 | 0.56 | B1
2 | 4.2 | B2
3 | 6.6 | B3

Biological target: T1, cynomolgus monkey FcγRIIIaS …
Assay: SPR; KD of SG1 / KD of variant
Description: as §1

Row | KD fold (SG1 = 1) [fold] | Binder
4 | 0.55 | B4
5 | 0.09 | B5
6 | 0.15 | B6
7 | 0.09 | B7
8 | 0.2 | B8
9 | 2.57 | B9
10 | 0.15 | B10
11 | 0.49 | B11

Biological target: T2, human FcγRIIaR extracellular domain, …
Assay: SPR (Biacore), 25C, FcgR bound per antibody captured

Row | Binding to human FcgRs (parent B3 = 100) | Binder
12 | 48 | B12
13 | 51 | B13
14 | 168 | B14
15 | 55 | B15
16 | 127 | B16
17 | 123 | B17

Each binder was assayed against T6, human FcγRIIIaV extracellular domain, His-tagged (human, UniProt P08637 17-208) in the same assay as above.
T6 construct: also called human FcgRIIIaV
T6 sequence (P08637 17-208 F176V): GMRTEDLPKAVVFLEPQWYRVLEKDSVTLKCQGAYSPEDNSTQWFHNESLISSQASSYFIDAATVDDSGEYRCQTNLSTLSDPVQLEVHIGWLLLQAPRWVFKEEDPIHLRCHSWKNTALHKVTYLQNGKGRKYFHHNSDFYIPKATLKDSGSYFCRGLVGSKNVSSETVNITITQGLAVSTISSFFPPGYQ

Row | Binding to human FcgRs (parent B3 = 100) | Binder
18 | 32 | B12
19 | 87 | B13
20 | 65 | B14
21 | 85 | B15
22 | 86 | B16
23 | 73 | B17

Each binder was assayed against T3, human FcγRIIb extracellular domain, … in the same assay as above.

Row | Binding to human FcgRs (parent B3 = 100) | Binder
24 | 94 | B14
25 | 110 | B15

Each binder was assayed against T4, human FcγRIIaH extracellular domain, … in the same assay as above.

Row | Binding to human FcgRs (parent B3 = 100) | Binder
26 | 95 | B12
27 | 90 | B13
28 | 165 | B14
29 | 121 | B16
30 | 116 | B17

The binders below were run against T7, cynomolgus monkey FcγRIIIaS extracellular domain with C-terminal His-tag (cynomolgus monkey, UniProt A3RFZ7 21-206 (rhesus entry)) (assay: SPR Biacore, antibody captured, FcgR analyte).
T7 construct: also called cyno FcgRIIIaS; cynoFcγRIIIaS; not shown: His-tag added to C-terminus
Description: as §1

Row | KD fold (SG1 = 1) [fold] | Binder
31 | 0.09 | B18
32 | 0.11 | B19
